The target of this data set is UspA2 (ubiquitous surface protein A2), displayed on E. coli BL21(DE3) (Moraxella catarrhalis Bc5) (UniProt Q9XD55). In words: fluorescence cell-binding titration (eluted FAM-aptamer).

For orientation: Kd means a measure of binding affinity in units of concentration. Read a low Kd as tighter binding.

For the sequence “ATCCAGAGTGACGCAGCATGGGACGGTGCGGGGGAGGAGGATGAGCGTGGTCGTTGGGTGGCTGCCGCAATGTCGTTGGTGGCCC [FAM-Apt1]”, the Kd was 214 nM.

Sequence “GGGCCACCAACGACATTGCGGCAGCCACCCAACGACCACGCTCATCCTCCTCCCCCGCACCGTCCCATGCTGCGTCACTCTGGAT [FAM-Apt1_RC]” registered an equilibrium dissociation constant (Kd) of 3.4 nM.

For the origin of these results see paper PMC9951875.
